B1: RTN2 (parent)
chain: SERPLEDLRLRLDHLGWVARGTGS
B2: SCNN1D (parent)
chain: FYRLYQDLETHRLPCTSRCPRPCR

Variants of: B1
Assay: protein stability index of a GFP-peptide fusion (GPS, HEK-293T) (PSI 1-6); higher = more stable
Settings: c terminus: a fixed tail appended
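Also: lentivirally expressed fusions sorted by FACS into six bins by GFP to DsRed ratio, PSI derived from sequencing read proportions per bin multiplied by bin number.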

Variant | protein stability index
E2G | 2.28
E2H | 2.19
E2A | 1.99
E2F | 2.9
S1M | 2.73
S1I | 3.02
S1G | 2.87
S1N | 2.57
S1K | 2.61
S1W | 2.46
S1E | 2.74
S1L | 1.76
S1P | 2.66
S1C | 1.88

Variants of: B2
Assay: as above
Settings: c terminus: a fixed tail appended

Variant | protein stability index
Q6S | 2.23
Q6W | 3.33
Q6T | 1.72
Q6M | 1.91
Q6Y | 1.52
Q6N | 2.28
Q6P | 1.38
Q6R | 1.96
Q6V | 1.65
R24P | 2.35
R24K | 2.65
R24A | 2.2
R24S | 2.13
R24F | 1.75
R24N | 1.61
R24W | 1.3
R24D | 1.6
R24T | 3.87
R24Q | 2.57
R24E | 2.14
R24M | 2.8
R24H | 1.69
R24I | 1.65
R24C | 1.77
R24L | 1.6

Variant | protein stability index
R24Y | 1.67
E9T | 1.65
E9V | 2.29
E9F | 1.46
E9S | 1.94
E9Q | 1.83
E9G | 1.57
E9R | 1.58
E9H | 2.25
E9C | 1.66
E9K | 2.38
E9M | 2.87
E9I | 2.06
E9L | 2.8
E9D | 2.99
E9A | 2.06
E9W | 1.08
E9P | 2.05
E9Y | 1.5
E9N | 1.6
H11Q | 2.37
H11F | 1.64
H11R | 2.48
H11V | 1.98
H11T | 2.79

Variant | protein stability index
H11P | 2
H11S | 2.21
H11N | 1.93
H11Y | 1.97
H11C | 2.62
H11K | 1.96
H11I | 1.39
H11L | 1.95
H11W | 2.05
H11M | 1.74
H11E | 2.31
H11A | 2.31
H11D | 2.24
R12D | 2.4
R12L | 2.05
R12A | 3.03
R12F | 2.41
R12P | 2.64
R12S | 3.51
R12G | 2.47
R12N | 2.22
R12I | 1.42
R12E | 2.5
R12Y | 1.78
R12K | 2.37

Variant | protein stability index
R12C | 2.3
R12T | 2.1
R12W | 2
R12H | 3.03
R12Q | 2.47
R12M | 2.33
R12V | 1.93
T16N | 2.21
T16F | 1.58
T16M | 2.1
T16R | 1.46
T16D | 2.79
T16A | 1.98
T16K | 1.9
T16P | 1.11
T16C | 1.66
T16S | 1.82
T16I | 1.62
T16L | 1.82
T16H | 1.49
T16Y | 1.6
T16Q | 1.98
T16V | 1.94
T16E | 2.5
T16W | 1.51

Variant | protein stability index
T16G | 1.93
T10F | 1.21
T10V | 1.52
T10I | 2.44
T10H | 2.34
T10N | 2.4
T10W | 2.05
T10Y | 1.6
T10G | 2.19
T10L | 2.29
T10M | 1.86
T10Q | 2.3
T10E | 2.31
T10A | 2.27
T10K | 2.47
T10D | 2.82
T10C | 1.94
T10R | 2.88
T10P | 2.03
T10S | 1.6
C23D | 3.36
C23S | 2.67
C23P | 2.43
C23H | 2.17
C23N | 1.91

Variant | protein stability index
C23I | 2.11
C23V | 1.85
C23A | 2.23
C23T | 2.37
C23M | 2.41
C23G | 2.65
C23F | 1.71
C23Y | 2.33
C23E | 2.43
C23Q | 2.42
C15P | 1.85
C15Q | 1.76
C15Y | 1.8
C15I | 2.48
C15R | 2.3
C15G | 2.47
C15D | 2.24
C15M | 1.73
C15F | 2.71
C15H | 2.28
C15T | 2
C15S | 2.64
C15W | 1.75
C15A | 2.07
P14C | 1.44

Variant | protein stability index
P14E | 2.39
P14Q | 1.94
P14D | 2.06
P14M | 1.6
P14Y | 1.45
P14G | 2.3
P14I | 1.53
P14R | 2.09
P14V | 1.47
P14F | 1.79
P14S | 2.44
P14N | 1.96
P14A | 2.01
P14T | 1.76
P14K | 1.89
P14W | 1.57
P14H | 1.97
P14L | 3.27
L8W | 1.7
L8Q | 2.11
L8D | 2.79
L8C | 2.08
L8E | 2.73
L8H | 2.97
L8F | 2.58

Variant | protein stability index
L8Y | 1.53
L8R | 2.22
L8S | 2.47
L8K | 2.38
L8N | 3.07
L8G | 2.97
L8A | 2.38
L8M | 2.02
L8I | 2.41
L8T | 2.09
L8V | 2.16
L8P | 2.75
L13R | 3.39
L13Q | 2.03
L13S | 2.67
L13A | 2.42
L13D | 2.19
L13F | 2.33
L13K | 2.63
L13H | 2.38
L13I | 2.38
L13C | 1.85
L13G | 2.66
L13M | 2.24
L13W | 2.21

Variant | protein stability index
L13T | 2.97
L13E | 3.25
L13Y | 1.72
L13N | 2.23
R21L | 2.21
R21M | 1.25
R21T | 2.1
R21G | 2.71
R21F | 1.96
R21Y | 2.71
R21Q | 3.16
R21E | 2.22
R21H | 3.38
R21N | 1.68
R21S | 1.88
R21V | 1.63
R21D | 1.83
R21W | 2.46
R21P | 2.26
P22Y | 1.32
P22T | 2.25
P22Q | 2.5
P22M | 1.5
P22N | 2.72
P22H | 2.38

Variant | protein stability index
P22R | 2.39
P22C | 3.11
P22I | 1.72
P22V | 1.8
P22G | 2.15
P22K | 2.18
P22S | 2.33
P22E | 2.27
P22W | 1.13
P22F | 1.8
C19V | 2.1
C19Y | 1.88
C19E | 2.66
C19R | 2.21
C19F | 2.65
C19P | 2.03
C19W | 3.18
C19M | 2.06
C19Q | 2.59
C19N | 3.89
C19I | 2.64
C19T | 3.26
C19D | 2.03
C19L | 2.68
C19H | 1.84

Variant | protein stability index
C19S | 2.09
C19G | 2.32
C19A | 1.94
C19K | 1.96
P20T | 2.88
P20F | 2.83
P20N | 2.13
P20L | 2.27
P20C | 2.51
P20S | 1.83
P20Y | 1.44
P20D | 1.81
P20E | 1.32
P20H | 2.18
P20G | 1.95
P20K | 2.57
P20I | 2.22
P20A | 1.98
P20R | 2.07
R18I | 1.15
R18H | 1.91
R18Y | 1.78
R18T | 2.15
R18N | 2.18
R18P | 1.74

Variant | protein stability index
R18D | 1.78
R18S | 1.94
R18F | 1.79
R18G | 2.54
R18L | 1.86
R18V | 1.4
R18M | 2.29
R18C | 1.51
D7R | 2.89
D7V | 1.98
D7M | 1.39
D7F | 2.22
D7L | 1.76
D7P | 2.44
D7E | 2.3
D7G | 2.3
D7Y | 1.66
D7Q | 1.48
D7T | 2.09
D7K | 2.08
D7W | 3
D7A | 1.32
D7N | 1.89
D7S | 1.98
D7C | 1.72

Variant | protein stability index
D7I | 3.21
D7H | 1.5
S17N | 2.15
S17V | 4.43
S17I | 1.85
S17P | 2.46
S17Y | 2.09
S17E | 2.43
S17H | 2.33
S17A | 2.46
S17G | 1.96
S17C | 1.65
S17Q | 2.45
S17M | 1.86
S17L | 1.5
S17K | 1.96
S17R | 2.56
S17F | 1.75
S17W | 1.02
S17T | 2.61
